Laboratory results published in patent publication US20140193420A1 (UNIVERSITY OF TOKYO, published 2014).

Key:
[1] = molecular target: T1, C-terminally HA-tagged ITM2A expressed on CHO cells (ITM2A_CHO) (human, UniProt O43736 1-263); assay: flow cytometry screening of hybridoma supernatants on ITM2A_CHO against parent CHO cells
T1 construct: Type II membrane protein on DG44 CHO cells; also called ITM2A-HA; ITM2A-expressing CHO cells

[2] = molecular target: T2, ITM2A-furin (Met1 to Leu227 of ITM2A with an HA tag added downstream) expressed on CHO cells (ITM2A-furin_CHO) (human, UniProt O43736 1-227); assay: flow cytometry on ITM2A-furin_CHO cells
T2 construct: C-terminally truncated ITM2A on DG44 CHO cells; also called ITM2A-furin-HA; ITM2A-furin-expressing CHO cells
T2 sequence (O43736 other isoform, or with tags, fused parts or gaps limits assumed): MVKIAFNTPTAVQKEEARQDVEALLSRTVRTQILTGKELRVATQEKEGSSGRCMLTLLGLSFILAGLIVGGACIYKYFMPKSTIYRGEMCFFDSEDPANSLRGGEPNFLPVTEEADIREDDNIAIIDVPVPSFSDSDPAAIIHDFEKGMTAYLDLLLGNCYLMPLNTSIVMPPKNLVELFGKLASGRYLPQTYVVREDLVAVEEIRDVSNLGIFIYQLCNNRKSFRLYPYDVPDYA
Description: (§1) Each anti-ITM2A monoclonal antibody prepared in Example 2 was assayed for its binding to ITM2A-furin by flow cytometry (FACS). The cells used were ITM2A-furin_CHO prepared in the paragraph (4-1), ITM2A_CHO prepared in the paragraph (2-4), and host cells CHO. These cells were separately suspended in PBS supplemented with 0.2% bovine serum albumin and 0.1% NaN3 (FACS buffer). To each cell suspension, the antibody BE5-1, BE6-1, BE7-1-1, or BE13-1, mouse IgG1, or an anti-HA antibody (clone HA-7, mouse IgG1, Sigma-Aldrich Corp.) was added, and the resulting cell suspension was incubated for 1 hour on ice. Each antibody was diluted into 6 dilutions at a common ratio of 5 from a concentration of 10 μg/mL. After washing of the cells with a FACS buffer, an FITC-labeled anti-mouse IgG antibody (Goat F(ab′)2 Fragment Anti-mouse IgG (Fcγ)-FITC, Beckman Coulter, Inc.) was added thereto as a secondary antibody. The resulting cell suspension was incubated for 1 hour on ice. The cells were washed with a FACS buffer, then suspended in a FACS buffer supplemented with 10 μg/mL propidium iodide (PI, Sigma-Aldrich Corp.), and subjected to assay using a flow cytometer. The assay data was analyzed using CELLQuest software (Becton, Dickinson and Company) to evaluate a PI-negative live cell population.

[3] = molecular target: T3, GST-ITM2A-S (GST fusion of ITM2A Tyr75-Lys182, C-terminally His-tagged) (human); assay: ELISA, coated GST-ITM2A-S
T3 construct: Expressed in E. coli, solubilized and purified in 8 M urea buffer, coated on the ELISA plate
T3 sequence (chain, as listed by the source limits assumed): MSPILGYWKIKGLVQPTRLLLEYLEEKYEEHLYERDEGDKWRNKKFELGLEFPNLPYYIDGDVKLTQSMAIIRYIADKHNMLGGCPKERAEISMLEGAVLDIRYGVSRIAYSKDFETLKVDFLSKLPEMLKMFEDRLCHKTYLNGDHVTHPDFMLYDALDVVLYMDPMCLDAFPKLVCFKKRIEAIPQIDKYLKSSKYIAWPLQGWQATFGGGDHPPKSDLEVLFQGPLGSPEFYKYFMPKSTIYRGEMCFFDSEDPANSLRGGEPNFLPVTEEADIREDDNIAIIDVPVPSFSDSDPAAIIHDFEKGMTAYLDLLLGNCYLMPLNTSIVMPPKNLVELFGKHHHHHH
Description: (§2) Each anti-ITM2A monoclonal antibody prepared in Example 2 was evaluated for its binding to GST-ITM2A-L and GST-ITM2A-S by ELISA. First, 100 μL each of GST-ITM2A-L and GST-ITM2A-S solutions having a concentration of 3 μg/mL was added to each well of a 96-well plate for ELISA (Nunc-Immuno Plate, Thermo Fisher Scientific K.K.) to coat the well with GST-ITM2A-L or GST-ITM2A-S. The coated well was blocked with a buffer containing 1% bovine serum albumin. Then, 100 μL each of solutions of the antibodies BE5-1, BE6-1, BE7-1-1, and BE13-1 diluted with the same buffer as above was added to each well. The plate was incubated at room temperature for 1 hour. The positive control used was an anti-His antibody (mouse IgG1, Santa Cruz Biotechnology, Inc.). The negative control used was mouse IgG1 (BD Pharmingen). Each antibody was diluted into 8 dilutions at a common ratio of 3.16 from a concentration of 1 μg/mL. After reaction with a secondary antibody (alkaline phosphatase-goat anti-mouse IgG (Gamma), Invitrogen Corp.), a substrate (phosphatase substrate, Sigma-Aldrich Corp.) was added to each well. Color developed by the reaction solution in each well was determined by the measurement of absorbance at 405 nm to 655 nm.

[4] = molecular target: T4, C-terminally HA-tagged mouse ITM2A expressed on CHO cells (mITM2A_CHO) (mouse, UniProt Q61500 1-263); assay: flow cytometry on mITM2A_CHO cells
T4 construct: also called mITM2A-HA; mouse ITM2A-expressing CHO cells
T4 sequence (Q61500 other isoform, or with tags, fused parts or gaps): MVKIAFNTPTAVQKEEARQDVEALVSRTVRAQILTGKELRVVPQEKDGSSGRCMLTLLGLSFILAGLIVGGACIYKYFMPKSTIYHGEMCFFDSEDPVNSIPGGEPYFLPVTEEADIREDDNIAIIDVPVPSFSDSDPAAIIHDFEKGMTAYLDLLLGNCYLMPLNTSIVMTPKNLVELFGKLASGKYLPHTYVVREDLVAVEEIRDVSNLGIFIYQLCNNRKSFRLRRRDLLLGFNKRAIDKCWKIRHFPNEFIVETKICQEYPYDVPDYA

[5] = molecular target: T5, GST-ITM2A-L (GST fusion of the ITM2A extracellular region Tyr75-Glu263, C-terminally His-tagged) (human); assay: ELISA, coated GST-ITM2A-L
T5 construct: Expressed in E. coli, solubilized and purified in 8 M urea buffer, coated on the ELISA plate
T5 sequence (chain, as listed by the source limits assumed): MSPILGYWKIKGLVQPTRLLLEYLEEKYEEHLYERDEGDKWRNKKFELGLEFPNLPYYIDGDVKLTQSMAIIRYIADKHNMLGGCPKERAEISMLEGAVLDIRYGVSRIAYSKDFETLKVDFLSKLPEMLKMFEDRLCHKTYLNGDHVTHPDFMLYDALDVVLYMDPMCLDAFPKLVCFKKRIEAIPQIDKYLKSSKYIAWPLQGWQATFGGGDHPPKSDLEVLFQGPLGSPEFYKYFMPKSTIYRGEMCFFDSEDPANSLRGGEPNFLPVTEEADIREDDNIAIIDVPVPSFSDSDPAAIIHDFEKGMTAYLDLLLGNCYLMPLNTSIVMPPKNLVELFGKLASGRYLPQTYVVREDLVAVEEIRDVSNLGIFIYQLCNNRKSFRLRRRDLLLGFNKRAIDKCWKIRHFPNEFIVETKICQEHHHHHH
Description: as §2

[6] = molecular target: T6, human ITM2A protein (endogenous, on human cancer cell lines) (human, UniProt O43736 1-263); assay: flow cytometry on human cancer cell lines, BE6-1 at 10 µg/mL, mouse IgG1 as negative control
T6 construct: also called NP-004858.1
T6 sequence (O43736 whole entry): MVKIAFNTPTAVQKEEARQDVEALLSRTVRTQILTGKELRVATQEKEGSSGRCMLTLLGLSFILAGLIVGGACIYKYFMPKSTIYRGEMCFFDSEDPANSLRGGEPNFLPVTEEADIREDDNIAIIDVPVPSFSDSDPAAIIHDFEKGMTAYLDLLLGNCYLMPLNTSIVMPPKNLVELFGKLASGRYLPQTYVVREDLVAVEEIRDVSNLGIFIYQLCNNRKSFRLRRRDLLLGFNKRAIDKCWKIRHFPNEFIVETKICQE
Description: as §1
The expression of ITM2A was assayed in human cancer cell lines by FACS. […]

[7] = molecular target: T1, C-terminally HA-tagged ITM2A expressed …; assay: flow cytometry on ITM2A_CHO cells
Description: as §1

T1 sequence (O43736 other isoform, or with tags, fused parts or gaps): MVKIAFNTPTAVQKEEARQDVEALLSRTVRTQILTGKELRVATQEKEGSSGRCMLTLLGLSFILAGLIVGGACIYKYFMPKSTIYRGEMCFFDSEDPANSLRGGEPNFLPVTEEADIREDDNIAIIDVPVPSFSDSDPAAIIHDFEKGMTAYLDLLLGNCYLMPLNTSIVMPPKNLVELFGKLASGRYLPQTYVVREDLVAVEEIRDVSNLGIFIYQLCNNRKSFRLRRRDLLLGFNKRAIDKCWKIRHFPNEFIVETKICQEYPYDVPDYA

Binder	binding result [1]	binding result [2]	binding result [3]	binding result [4]	binding result [5]	binding result [6]	binding result [7]
anti-ITM2A monoclonal antibody BE5-1 (antibody, mouse IgG1, V domains shown) VH: QVQLVETGGGLVRPGNSLKLSCVTSGFTFSDYRMHWLRQSPGKRLEWIAVITGKSDNYGASYAESVKGRFTISRDDSKSSVYLQMNRLREEDTATYYCSRRDYWGQGTSVTVSS VL: DIVMTQAAPSVPVTPGESVSISCRSSKSLLHSNGNTYLYWFLQRPGQSPQLLIYRMSNLAPGVPDRFSGSGSGTAFTLRISRVEAEDVGVYYCMQHLEYPFTFGAGTKLELK	binds	binds	binds	binds	binds		
anti-ITM2A monoclonal antibody BE6-1 (antibody, mouse IgG1, V domains shown) VH: EVQLQQSGPELVKPGASVKISCKTSGYTFTEYTMHWVKQSHGKSLEWIGGINPNNGDTSYNQKFKGKATLTVDKSSITAYMELRSLTSEDSAVYYCARGPFAYWGQGTLVTVST VL: DVVMTQTPLSLPVSLGDQASISCRSSQSLVHSNGNTYFHWYLQKPGQSPKFLIYKVSNRFFGVPDRFSGSGSGTDFTLKISRVEAEDLGVYFCSQTTHFPFTFGSGTKLEIK		binds	binds	no binding	binds	binds	binds
anti-ITM2A monoclonal antibody BE13-1 (antibody, mouse IgG1, V domains shown) VH: EVQLQQSGPELVKPGASVRMSCKASGYTFTDYYMKWVKQSHGKSLEWIGDINPNNGGLSYNQKFKGKATLTVDKSSSTAYMQLASLTSEDSAVYYCAIWSGAYWGQGTLVTVSA VL: not shown				binds	binds		binds
